Results taken from US20220177583A1.
Residue numbers refer to the chain shown, from its start. Each block holds one binder with its values, some of them ahead of it.

Assays:
[1] = target: human CLDN6 fused to GFP, expressed on engineered HEK293T cells (human) (UniProt P56747); test: FACS, 293T clone with human CLDN6, 0.3 ug Ab
[2] = target: human CLDN6 fused to GFP, expressed on engineered HEK293T cells (human) (UniProt P56747); test: FACS, 293T clone with human CLDN6, 1.5 ug Ab

B1: AB9-chim (antibody, V domains shown)
VH: EVQLQQSGPELVKPGASVKMSCKASGYRFTDYNMHWVKQSHGKSLEWIGYINPNNGGTNYNQNFKGKATLTVNKSSSTAYMELRSLTSEDSAAYYCARDYLYFFDCWGQGTTLTVSS
VL: DIQMTQSPASQSASLGESVTITCLASQTIGTWLAWYQQKPGKSPQLLIYAAASLADGVPSRFSGSGSGTRFSFKISSLQAEDFVSYYCQQLYSIPRTFGGGTKLEIK
FACS signal [1]: 46700 | FACS signal [2]: 72000

B4: AB4-4 (antibody, V domains shown)
VH: QVQLVQSGAEVKKPGASVKMSCKASGYTFTSYTMHWIRQAPGQGLEWIGYINPSSTYTHYAQKFQGRATLTADTSTSTAYMELSSLRSEDTAVYYCSRGELGGFAYWGQGTLVTVSS
VL: DVVMTQSPLSLPVTLGQPASISCRSSQSLVHSDGNTYLNWYQQRPGQSPRLLIYKVSNRFSGVPDRFSGSGSGTDFTLKISRVEAEDVGVYYCSQSTHVPYTFGQGTKLEIK
FACS signal [1]: 14100 | FACS signal [2]: 49000

B6: AB4-5 (antibody, V domains shown)
VH: B4 VH with L45Q
VL: B4 VL
FACS signal [1]: 16800 | FACS signal [2]: 43400

B8: AB4-9 (antibody, V domains shown)
VH: B4 VH with A61I, Q62K, Q65K, G66D
VL: B4 VL
FACS signal [1]: 37200 | FACS signal [2]: 56900

B9: AB4-7 (antibody, V domains shown)
VH: B4 VH with L45Q, T74K
VL: B4 VL
FACS signal [1]: 19200 | FACS signal [2]: 33300

B10: AB4-6 (antibody, V domains shown)
VH: B4 VH with T74K
VL: B4 VL
FACS signal [1]: 10800 | FACS signal [2]: 29200

B11: AB4-12 (antibody, V domains shown)
VH: B4 VH with L45Q, A61I, Q62K, Q65K, G66D, T74K
VL: B4 VL
FACS signal [1]: 71100 | FACS signal [2]: 86200

B14: AB11-chim (antibody, V domains shown)
VH: DVQLVESGGGLVQPRGSRKLSCAASGFTFSSFGMHWVRQAPEKGLEWVAYISSDSRTIYYADTVKGRFTISRDNPTNTLFLQMTSLRSEDTAMYYCARDYGRTYEAYWGQGTLVTVSA
VL: DIVLTQSPASLAVSLGQRATISCRASKSVSTSGYSYIHWYQQKPGQPPKLLIYLASNLESGVPARFSGSGSGTDFTLNIHPVEEEDAATYYCQHSRELPLTFGAGTKLELK
FACS signal [1]: 1670 | FACS signal [2]: 3490

B16: AB18-4 (antibody, V domains shown)
VH: QVQLVQSGAEVKKPGASVKVSCKASGYSFTGYNMNWVRQAPGQGLEWMGNIDPYYGGSTYAQKFQGRVTMTVDTSTSTVYMELSSLRSEDTAVYYCARERSGYVFSAMDYWGQGTLVTVSS
VL: DIVMTQSPDSLAVSLGERVTMNCKSSQSVLFSSNQKNYLAWYQQKPGQPPKLLIYWASTRESGVPDRFSGSGSGTDFTLTISSVQAEDVAVYYCHQYLSSRTFGQGTKLEIK
FACS signal [1]: 32400 | FACS signal [2]: 54400

B17: AB18-6 (antibody, V domains shown)
VH: B16 VH with V20I, M48I, V68A, M70L, V79A
VL: B16 VL
FACS signal [1]: 26900 | FACS signal [2]: 58500

B18: AB1-3 (antibody, V domains shown)
VH: QVQLVQSGAEVKKPGASVKVSCKASGYTFTTYTMHWVRQAPGQGLEWMGFINPSSGYTDYAQKFQGRVTMTADTSTSTVYMELSSLRSEDTAVYYCANGDYYVAYWGQGTLVTVSS
VL: DIQMTQSPSSLSASVGDRVTITCTASSSVSSTYFHWYQQKPGKAPKLLIYSTSNLASGVPSRFSGSGSGTDYTLTISSLQPEDFATYYCHQYHRSPLTFGQGTKLEIK
FACS signal [1]: 142000 | FACS signal [2]: 142000

B21: AB1-11 (antibody, V domains shown)
VH: B18 VH with V20M, M48I, M70L, T74K
VL: B18 VL with M4L, I21M, L48W, L79M, F84A
FACS signal [1]: 64900 | FACS signal [2]: 113000

B24: AB1-5 (antibody, V domains shown)
VH: B18 VH
VL: B18 VL with M4L, I21M, L48W, L79M, F84A
FACS signal [1]: 138000 | FACS signal [2]: 213000

B27: AB3-3 (antibody, V domains shown)
VH: EVQLLESGGGLVQPGGSMRLSCAASGFTFSNYWMNWVRQAPGKGLEWVAQIRLKSDNYATHYADSVKGRFTISRDDSKNTVYLQMNSLRAEDTGVYYCNDGPPSGCWGQGTLLTVSS
VL: DIQMTQSPSSLSASVGDRVTITCRISENIYSYLAWYQQKPGKAPKLLVYNAKILVEGVPSRFSGSGSGTDFTLTISSLQPEDFGTYYCQHHYTVPWTFGQGTKLEIK
FACS signal [1]: 251000 | FACS signal [2]: 340000

B28: AB3-5 (antibody, V domains shown)
VH: B27 VH with C106Y
VL: B27 VL
FACS signal [1]: 13300 | FACS signal [2]: 48600

B29: AB3-chim (antibody, V domains shown)
VH: EVKLEESGGGLVQPGGSMKLSCVASGFTFSNYWMNWVRQSPEKGLEWVAQIRLKSDNYATHYAESVKGRFTISRDDSKRSVYLQMNNLRAEDTGTYYCNDGPPSGCWGQGTTLIVSS
VL: DIQMTQSPASLSASVGETVTITCRISENIYSYLAWYQQKQGKSPQLLVYNAKILVEGVPSRFSGSGSGTQFSLKINSLQPEDFGNYYCQHHYTVPWTFGGGTKLEIK
FACS signal [1]: 267000 | FACS signal [2]: 459000

B30: AB18-chim (antibody, V domains shown)
VH: QVQLKQSGPELEKPGASVKISCKASGYSFTGYNMNWVKQSNGKSLEWIGNIDPYYGGSTYNQKFTGKATLTVDKSSSTAYMQLKSLTSEDSAVYYCARERSGYVFSAMDYWGQGTSVTVSS
VL: NIMMTQSPSSLAVSAGEKVTMSCKSSQSVLFSSNQKNYLAWYQQKPGQSPRLLIYWASTRESGVPDRFTGSGSGTDFTLTISNVQAEDLAVYYCHQYLSSRTFGAGTKLELK
FACS signal [1]: 73800 | FACS signal [2]: 135000

The remaining lines, values ahead:

FACS signal [1]: 14300 | FACS signal [2]: 47800
B2: AB4-3 (antibody, V domains shown)
VH: B4 VH with M20V, I37V, I48M, A68V, L70M, A79V
VL: B4 VL

FACS signal [1]: 49300 | FACS signal [2]: 77600
B3: AB4-8 (antibody, V domains shown)
VH: B4 VH with M20V, I37V, I48M, A61I, Q62K, Q65K, G66D, A68V, L70M, A79V
VL: B4 VL

FACS signal [1]: 50800 | FACS signal [2]: 77200
B5: AB4-10 (antibody, V domains shown)
VH: B4 VH with L45Q, A61I, Q62K, Q65K, G66D
VL: B4 VL

FACS signal [1]: 37800 | FACS signal [2]: 61200
B7: AB4-11 (antibody, V domains shown)
VH: B4 VH with A61I, Q62K, Q65K, G66D, T74K
VL: B4 VL

FACS signal [1]: 9500 | FACS signal [2]: 24600
B12: AB9-3 (antibody, V domains shown)
VH: QVQLVQSGAEVKKPGASVKMSCKASGYRFTDYNMHWVRQAPGQGLEWIGYINPNNGGTNYAQKFQGRATLTVDTSTSTAYMELSSLRSEDTAVYYCARDYLYFFDCWGQGTLLTVSS
VL: DIQMTQSPSSLSASVGDRVTITCLASQTIGTWLAWYQQKPGKAPKLLIYAAASLADGVPSRFSGSGSGTDFTFTISSLQPEDFVTYYCQQLYSIPRTFGQGTKLEIK

FACS signal [1]: 15300 | FACS signal [2]: 34300
B13: AB9-4 (antibody, V domains shown)
VH: B12 VH
VL: B12 VL with L24R

FACS signal [1]: 312000 | FACS signal [2]: 364000
B15: AB1-Chim (antibody, V domains shown)
VH: QVQLQQSAAELARPGASVKMSCKASGYTFTTYTMHWVKQRPGQGLEWIGFINPSSGYTDYNQKFKDRTTLTADKSSSTVYMQLSSLTSEDSAVYYCANGDYYVAYWGQGTLVTVSA
VL: QIVLTQSPAIMSASLGERVTMTCTASSSVSSTYFHWYQQKPGSSPKLWIYSTSNLASGVPRRFSGSASGTSYSLTISSMEAEDAATYYCHQYHRSPLTFGAGTKLELK

FACS signal [1]: 79200 | FACS signal [2]: 207000
B19: AB1-7 (antibody, V domains shown)
VH: B18 VH with V20M, M48I, M70L
VL: B18 VL with M4L, I21M, L79M, F84A

FACS signal [1]: 120000 | FACS signal [2]: 227000
B20: AB1-6 (antibody, V domains shown)
VH: B18 VH with V20M, M48I, M70L
VL: B18 VL

FACS signal [1]: 98800 | FACS signal [2]: 210000
B22: AB1-8 (antibody, V domains shown)
VH: B18 VH with V20M, M48I, M70L
VL: B18 VL with M4L, I21M, L48W, L79M, F84A

FACS signal [1]: 102000 | FACS signal [2]: 197000
B23: AB1-4 (antibody, V domains shown)
VH: B18 VH
VL: B18 VL with M4L, I21M, L79M, F84A

FACS signal [1]: 309000 | FACS signal [2]: 396000
B25: AB3-2 (antibody, V domains shown)
VH: B27 VH
VL: B27 VL with V48I, G84A

FACS signal [1]: 11600 | FACS signal [2]: 55800
B26: AB3-4 (antibody, V domains shown)
VH: B27 VH with C106Y
VL: B27 VL with V48I, G84A
